Substitutions are numbered along the chain they refer to. Blank lines part the entries; values can stand above or below the molecule they belong to.
Key:
[1] = molecular target: T1, wild type 11-cis retinol dehydrogenase (Homo sapiens, UniProt Q92781); test: Km and Vmax of wild type enzyme, oxidation of 11-cis retinol to 11-cis retinal by microsomes, HPLC; type: biochemical; settings: 2 μg microsomal protein, 8-minute incubations, 5 mM NAD, 37° C., Lineweaver-Burk, average of duplicates 7.1 and 9.6
T1 construct: expressed in transfected cells; host or cells: COS-1 cells (microsomes), vector pSG5
T1 sequence (Q92781 1-318): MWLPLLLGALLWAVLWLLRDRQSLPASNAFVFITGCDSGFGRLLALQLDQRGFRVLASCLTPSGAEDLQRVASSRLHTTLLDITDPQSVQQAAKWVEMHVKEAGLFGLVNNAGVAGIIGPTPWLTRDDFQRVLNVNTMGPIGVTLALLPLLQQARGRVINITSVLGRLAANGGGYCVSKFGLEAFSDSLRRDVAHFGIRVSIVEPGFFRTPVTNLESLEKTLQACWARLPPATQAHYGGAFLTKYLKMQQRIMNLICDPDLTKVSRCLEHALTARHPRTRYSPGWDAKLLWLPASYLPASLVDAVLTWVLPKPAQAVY
Experimental: To monitor the ability of the wild-type and mutant enzymes to catalyze the oxidation of 11-cis retinol to 11-cis retinal, 11-cis retinol, which had been synthesized by reduction of 11-cis retinal with NaBH4 and stored under argon at −80° C., was added to reaction mixtures containing microsomes from the transfected cells.
The enzyme reactions, in a total volume of 100 μp were carried out in 50 mM Tris-HCl buffer pH7.5 containing 5 mM NAD or NADH, […] 11-cis retinol, or 11-cis retinal, and microsomes at 37° C. All manipulations of retinoids were performed in dim light. The reactions were stopped by putting the tubes on ice, and the retinoids were immediately extracted with 200 μl n-hexane. Subsequently, 75 μl aliquots were analyzed by reverse-phase HPLC using a C18 column. The mobile phase was acetonitrile/water (85/15, v/v), and the column was eluted under isocratic conditions at a flow rate of 1 ml/min. 11-cis retinol and 11-cis retinal eluted at 12.0-12.2 and 14.0-14.3 minutes, respectively. Retinoids were quantified at 320 and 370 nm. […] Formed 11-cis retinal was quantified in the HPLC analyses, and the Km and Vmax values were calculated from Lineweaver-Burk plots. The values were compensated for the extraction efficiency (60-70%, as determined experimentally).

[2] = system: 11-cis retinol dehydrogenase (RDH5); test: Relative activities of wild type and mutant enzymes, oxidation of 11-cis retinol (forward reaction), microsomes, HPLC; type: biochemical, human; settings: for ability to catalyze oxidation of 11-cis-retinol to 11-cis-retinal: 10 minutes at 37° C., 5 mM NAD, 50 μM 11-cis-retinol, mutant 20 μg, wild type 2 μg microsomes; for fold activity above background activity (mock transformants) / fold less activity than wild type enzyme: after 40 minutes incubation
Experimental: (§1) The relative activities of the wild type and mutant enzymes were then determined. To do this, microsomes containing a mutant enzyme (20 μg), or wild type enzyme(2 μg) together with 18 μg of microsomal protein from mock-transfected cells, to standardize the experimental conditions, or no enzyme were combined with 50 mM Tris-HCl buffer (pH 7.5), containing 5 mM of NAD, and 50 μM 11-cis-retinol (forward, oxidation reaction) or 5 mM NADH and 50 μM 11-cis-retinal (reverse, reduction reaction) in a total volume of 100 μl. 50 μM 11-cis retinol is approximately a seven-fold higher substrate concentration than the estimated Km value for the wild-type enzyme. The mixtures were incubated for 10 minutes at 37° C., after which the reactions were stopped by putting the mixtures on ice. Retinoids were extracted immediately with 200 μl of n-hexane. Subsequently, 75 μl aliquots were analyzed via reversed phase HPLC using a C18 column. The mobile phase was acetonitrile/water (85:15 v/v), and the column was eluted under isocratic conditions at a flow rate of 1 ml/min. The 11-cis-retinol eluted at 12.0-12.2 minutes, and 11-cis-retinal at 14.0-14.3 minutes. Retinoids were quantified at 320 (retinol) and 370 (retinal) nm. Relative activities of wild-type and mutant enzymes were calculated as the ratio of formed 11-cis retinal by transfected versus mock-transfected microsomes. The results were normalized for the total extracted retinoid content from each reaction.
The Gly238Trp mutant was tested further, to determine if it had any activity, by incubating for 20 and 40 minute periods before extracting retinoids. Wild type and Ser73Phe mutant were used as controls.

[3] = molecular target: T2, 11-cis retinol dehydrogenase (RDH5) (Homo sapiens, UniProt Q92781); test: Relative activities of wild type and mutant enzymes, reduction of 11-cis retinal (reverse reaction), microsomes, HPLC; type: biochemical; settings: 10 minutes at 37° C., 5 mM NADH, 50 μM 11-cis-retinal
T2 construct: expressed in transfected cells; host or cells: COS-1 cells (microsomes), vector pSG5
T2 sequence (Q92781 1-318): T1 sequence (Q92781 1-318)
Experimental: as §1, with “The results were normalized for the total extracted retinoid content from each reaction.” left out

Vmax [1]: 8.4 nmol/mg protein/minute
Molecule: CC1=C(/C=C/C(C)=C/C=C\C(C)=C\CO)C(C)(C)CCC1 [11-cis retinol]

fold activity above background activity (mock transformants) [2]: 42.9 ± 4.5 fold
ability to catalyze reduction of 11-cis-retinal to 11-cis-retinol (reverse reaction) [3]: catalyzed the reverse reaction
B1: wild type enzyme: wild type human 11-cis retinol dehydrogenase (RDH5) expressed in COS-1 cells (protein, UniProt Q92781 1-318, looked up)
Retinol dehydrogenase 5: T1 sequence (Q92781 1-318)
ability to catalyze oxidation of 11-cis-retinol to 11-cis-retinal [2]: exhibited the expected ability to catalyze the oxidation

ability to catalyze oxidation of 11-cis-retinol to 11-cis-retinal [2]: no activity above background level
fold activity above background activity (mock transformants) [2]: 2.2±0.14 fold
fold less activity than wild type enzyme [2]: approximately 19 fold
B2: Gly238Trp mutant: mutant human 11-cis retinol dehydrogenase (RDH5), Gly to Trp at amino acid 238 (protein, UniProt Q92781 1-318, looked up, variant G238W)
Retinol dehydrogenase 5: T1 sequence (Q92781 1-318) with G238W

ability to catalyze oxidation of 11-cis-retinol to 11-cis-retinal [2]: residual activity
fold activity above background activity (mock transformants) [2]: 9.1±1 fold
fold less activity than wild type enzyme [2]: approximately 5 fold
B3: Ser73Phe mutant: mutant human 11-cis retinol dehydrogenase (RDH5), Ser to Phe at amino acid 73 (protein, UniProt Q92781 1-318, looked up, variant S73F)
Retinol dehydrogenase 5: T1 sequence (Q92781 1-318) with S73F

From US6358728B1, “Mutations in nucleic acid molecules encoding 11-CIS retinol dehydrogenase, the mutated proteins, and uses thereof” (The President & Fellows of Havard College, priority 1999, dated 2002)
